Assay results reported in article PMC5982823, “The Pseudokinase Domain of Saccharomyces cerevisiae Tra1 Is Required for Nuclear Localization and Incorporation into the SAGA and NuA4 Complexes” (G3: Genes|Genomes|Genetics, 2018).

T1: TAP-tagged Ada2 (S. cerevisiae, UniProt Q02336 1-434)
T1 construct: Ada2, SAGA component, S. cerevisiae; TAP-tagged ADA2; Held on IgG beads, released with TEV protease, then held on calmodulin beads, so part of the TAP tag is cut off during the purification; also called TAP-Ada2; TAP-ADA2; source: S. cerevisiae strain with TAP-tagged ADA2 (bought: Open Biosystems YSC1178-202230655; crossed with CY6582 for the tra1 Q3 strain CY7042), in lysate of cells ground in …
T1 sequence (looked up): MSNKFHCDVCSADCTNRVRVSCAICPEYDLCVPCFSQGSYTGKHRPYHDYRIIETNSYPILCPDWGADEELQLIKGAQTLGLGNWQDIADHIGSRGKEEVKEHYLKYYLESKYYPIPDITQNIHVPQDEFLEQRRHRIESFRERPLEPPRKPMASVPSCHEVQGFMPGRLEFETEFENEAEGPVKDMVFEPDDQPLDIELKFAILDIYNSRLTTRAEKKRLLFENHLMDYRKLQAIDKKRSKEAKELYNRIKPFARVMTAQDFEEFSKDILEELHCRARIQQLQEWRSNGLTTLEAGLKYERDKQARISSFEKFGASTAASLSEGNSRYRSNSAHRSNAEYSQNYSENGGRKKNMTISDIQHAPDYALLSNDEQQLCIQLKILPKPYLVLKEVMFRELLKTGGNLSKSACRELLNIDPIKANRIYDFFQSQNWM

B1: full length Spt20 (natural protein, UniProt P50875 1-604, looked up)
chain: MSANSPTGNDPHVFGIPVNATPSNMGSPGSPVNVPPPMNPAVANVNHPVMRTNSNSNANEGTRTLTREQIQQLQQRQRLLLQQRLLEQQRKQQALQNYEAQFYQMLMTLNKRPKRLYNFVEDADSILKKYEQYLHSFEFHIYENNYKICAPANSRLQQQQKQPELTSDGLILTKNNETLKEFLEYVARGRIPDAIMEVLRDCNIQFYEGNLILQVYDHTNTVDVTPKENKPNLNSSSSPSNNNSTQDNSKIQQPSEPNSGVANTGANTANKKASFKRPRVYRTLLKPNDLTTYYDMMSYADNARFSDSIYQQFESEILTLTKRNLSLSVPLNPYEHRDMLEETAFSEPHWDSEKKSFIHEHRAESTREGTKGVVGHIEERDEFPQHSSNYEQLMLIMNERTTTITNSTFAVSLTKNAMEIASSSSNGVRGASSSTSNSASNTRNNSLANGNQVALAAAAAAAAVGSTMGNDNNQFSRLKFIEQWRINKEKRKQQALSANINPTPFNARISMTAPLTPQQQLLQRQQQALEQQQNGGAMKNANKRSGNNATSNNNNNNNNLDKPKVKRPRKNAKKSESGTPAPKKKRMTKKKQSASSTPSSTTMS
notes: Spt20, S. cerevisiae, full length band in the TAP-Ada2 purification; source: endogenous, S. cerevisiae lysate

Legend:
Test in all cases: affinity purification with mass spectrometry; tandem affinity purification of TAP-tagged Epl1 or Ada2 from lysates of TRA1 or tra1 Q3 strains (260 mg or 170 mg protein): IgG beads 2 h at 4°, IPP150 (10 mM Tris-HCl pH 8.0, 150 mM NaCl), TEV cleavage, calmodulin beads, EGTA elution; SDS-PAGE, Coomassie Brilliant Blue; bands identified by MALDI mass spectrometry or predicted from mass; band intensity by ImageJ
[1] = molecular target: TAP-tagged Epl1 (S. cerevisiae) (UniProt P43572)
[2] = molecular target: TAP-tagged Ada2 (S. cerevisiae) (UniProt Q02336)
[3] = molecular target: T1, TAP-tagged Ada2; conditions: partners not purified

TAP-tagged Epl1 (S. cerevisiae), sequence (P43572 whole entry): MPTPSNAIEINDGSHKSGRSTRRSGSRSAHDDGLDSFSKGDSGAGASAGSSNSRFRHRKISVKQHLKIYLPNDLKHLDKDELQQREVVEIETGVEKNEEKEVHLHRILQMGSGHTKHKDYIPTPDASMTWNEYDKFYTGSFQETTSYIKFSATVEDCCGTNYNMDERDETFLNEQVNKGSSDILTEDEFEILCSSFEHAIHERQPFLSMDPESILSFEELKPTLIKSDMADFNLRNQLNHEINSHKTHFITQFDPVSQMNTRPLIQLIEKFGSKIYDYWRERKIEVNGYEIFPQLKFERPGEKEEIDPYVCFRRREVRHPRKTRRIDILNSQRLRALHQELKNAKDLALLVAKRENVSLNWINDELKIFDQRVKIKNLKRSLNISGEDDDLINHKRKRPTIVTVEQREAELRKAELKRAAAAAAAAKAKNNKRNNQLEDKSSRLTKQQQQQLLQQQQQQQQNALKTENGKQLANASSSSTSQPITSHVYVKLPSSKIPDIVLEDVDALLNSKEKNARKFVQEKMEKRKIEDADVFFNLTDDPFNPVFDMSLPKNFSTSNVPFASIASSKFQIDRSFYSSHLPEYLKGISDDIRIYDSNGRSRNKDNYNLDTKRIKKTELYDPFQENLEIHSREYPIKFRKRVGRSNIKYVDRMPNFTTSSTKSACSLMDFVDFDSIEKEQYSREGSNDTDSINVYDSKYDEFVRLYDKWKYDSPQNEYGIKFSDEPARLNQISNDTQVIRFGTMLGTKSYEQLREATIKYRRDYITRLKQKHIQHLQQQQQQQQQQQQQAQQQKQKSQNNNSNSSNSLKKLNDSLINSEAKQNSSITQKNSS

Molecule | fold decrease against wild-type Tra1 [1] [fold] | fold decrease against wild-type Tra1 [2] [fold] | fold decrease of full length Spt20 in the TAP-Ada2 pull down, tra1 Q3 strain against the wild-type strain [3] [fold]
Tra1 Q3 (R3389Q, R3390Q, R3456Q), P38811 1-3744 | 6.7 | 6.5 | 
B1 |  |  | 2.1
